# Changes are numbered by the printed parent chain.
# B1: 2.796.2 (antibody, V domains shown)
# VH: QVQLVESGGGLVKPGGSLRLSCAASGFTFSDYYMNWIRQAPGKGLEWVSYISSSGSIIYYADSVKGRFTISRDNAKNSLYLQMNSLRAEDTAVYYCARDGHIAARGMDVWGQGTTVTVSS
# VL: DIQMTQSPSSLSASVGDRVTITCRASQSFSRYINWYQQKPGKAPKLLIYAASSLQGGVPSRFSGSGSGTDFTLTISSLQPEDFATYYCQQTYSNPPITFGQGTRLEIK
# notes: Variable regions only
# B2: 2.2071.1.3 (antibody, V domains shown)
# VH: B1 VH with H101R, A103V
# VL: B1 VL with I21L, Q27H, F29I, S30N, G56S, S65N, T91S, N94T, K108T
# notes: Variable regions only
# B3: 2.449.1.3 (antibody, V domains shown)
# VH: B1 VH with D99E, H101R
# VL: B1 VL with T20S, A25P, Y49H, Q55V, I107M
# notes: Variable regions only
# B4: 3.818.4 (antibody, V domains shown)
# VH: EVQLVESGGGLVQPGGSLRLSCAASGFTFSSYSMNWVRQAPGKGLEWVSYISGSSTTMYYADSVKGRFTISRDNAKNSLYLQMNSLRDEDTAVYYCARLRHFDWSYAFDIWGQGTMVTVSS
# VL: DIQMTQSPSSVSTSVGDRVTITCRASQGISSWLAWYQQRPGKAPKLLIYAASSLQSGVPSRFSGSGSGTDFTLTISSLQPEDFATYFCQQATSFPFTFGPGTKVGIK
# B5: 2.2002.3 (antibody, V domains shown)
# VH: QVQLVESGGGVVQPGRSLRVSCAASGFMFRSYGMHWVRQAPGKGLEWVAVIWHDGSNKNHGDSVKGRFTISRDNSKNTLYLQMNSLRAEDTAVYYCARGRLAGGGPYYYYYYGMDVWGQGTTVTVSS
# VL: not shown
# B6: 3.472.1.1 (antibody, V domains shown)
# VH: QVQLVESGGGVVQPGRSLRLSCAASGFTFSSYGMHWVRQAPGKGLEWVAVIWYDRSNKYYVDSVKGRFTISRDNSKNTLYLQMNSLRAEDTAVYYCAGGRSRGAFDYWGQGTLVTVSS
# VL: DIQMTQSPSSVSASVGDRVTITCRASQDISSWLAWYQQKPGKAPKLLIFAASSLQSGVPSRFSGSGSGTDFTLTISSLQPEDFATYYCQRTSSFPRTFGQGTKVEIK
# B7: 3.457.3.1 (antibody, V domains shown)
# VH: B6 VH with V61A, Y107F
# VL: B6 VL with D28G, P40A, F49Y, A50S, S92N
# B8: 3.87.1.1 (antibody, V domains shown)
# VH: B6 VH with V61A
# VL: B6 VL with D28G, S92N
# B9: 3.805.1.3 (antibody, V domains shown)
# VH: B6 VH with V61A
# VL: B6 VL with D28G, K45N, F49Y, S92N, S93N
# B10: 3.772.2 (antibody, V domains shown)
# VH: B6 VH with V61A, Y107F
# VL: B6 VL with P40A, F49Y, S92N
# B11: 2.1954.2 (antibody, V domains shown)
# VH: QVQLVESGGGVVQPGRSLRLSCAASGFSFSIYGMHWVRQAPGKGLEWVAVIWFDGSNKYYADSVKGRFTISRDNSKNTLYLQMNSLRAEDTALYYCARDKASYYGSGMDYWGQGTLVTVSS
# VL: EIVLTQSPGTLSLSPGERATLSCRASQSVSSTYLAWYQHRPGQAPRLLISGASRRATGIPDRFSGSGSGTDFTLTISRLEPEDFAVYYCQHYGSSFTWTFGQGTKVEIK
# B12: 2.2002.3 (antibody, V domains shown)
# VH: B5 VH
# VL: not shown
# B13: 5.9.3 (antibody, V domains shown)
# VH: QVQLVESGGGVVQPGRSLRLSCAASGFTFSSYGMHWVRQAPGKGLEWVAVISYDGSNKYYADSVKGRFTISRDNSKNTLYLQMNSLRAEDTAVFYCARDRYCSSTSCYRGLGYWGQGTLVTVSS
# VL: DIQMTQSPSSLSASVGDRVSITCRASQGIRNDLGWYQQKPGKAPTRLIYAASSLQSGVPSRFSGSGSGTEFTLTISSLQPEDFASYYCLQHNSFPWTFGQGTKVEIK
# B14: 3.23.2 (antibody, V domains shown)
# VH: EVQLVESGGGLVQPGGSLRLSCAASGFTFSNFWMSWVRQAPGKGLEWVANIKHGGSEKYYVDSVKGRFTISRDNAKNSLYLQMNRLRAEDTAVYYCARDPMYYFDYWGQGTLVTVSS
# VL: B13 VL with S20T, G28D, G34D, T45K, S85T, S93G, F94Y, W96R, T97S, V104L
# B15: 3.805.1.3 (antibody, V domains shown)
# VH: B6 VH with V61A
# VL: B6 VL with D28G, K45N, F49Y, S92N, S93N
# B16: 3.625.1.7 (antibody, V domains shown)
# VH: B6 VH with V61A, N84D
# VL: B6 VL with D28G, F49Y, S92N
# B17: 3.772.2 (antibody, V domains shown)
# VH: B6 VH with V61A, Y107F
# VL: B6 VL with P40A, F49Y, S92N
# B18: 2.1954.2 (antibody, V domains shown)
# VH: B11 VH
# VL: B11 VL
# Biological target: PDGFR-beta (UniProt P09619 33-530, limits assumed)
# Experiment: method not described
# Chain of PDGFR-beta (P09619 33-530 limits assumed): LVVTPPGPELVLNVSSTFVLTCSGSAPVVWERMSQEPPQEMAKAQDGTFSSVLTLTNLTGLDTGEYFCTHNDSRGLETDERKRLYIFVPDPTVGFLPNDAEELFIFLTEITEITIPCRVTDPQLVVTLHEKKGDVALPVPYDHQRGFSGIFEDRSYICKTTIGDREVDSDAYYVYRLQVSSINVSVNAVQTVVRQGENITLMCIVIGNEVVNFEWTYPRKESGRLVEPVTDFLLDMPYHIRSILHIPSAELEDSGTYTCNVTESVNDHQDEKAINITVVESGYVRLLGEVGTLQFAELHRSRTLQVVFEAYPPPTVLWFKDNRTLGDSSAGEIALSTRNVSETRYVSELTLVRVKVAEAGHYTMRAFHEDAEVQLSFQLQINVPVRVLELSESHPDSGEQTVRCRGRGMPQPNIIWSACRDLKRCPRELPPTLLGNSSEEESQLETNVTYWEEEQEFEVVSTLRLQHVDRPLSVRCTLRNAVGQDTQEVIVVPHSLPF
row,binding result,Binder
1,no binding,B1
2,no binding,B2
3,no binding,B3

# Biological target: FLT3 (UniProt P36888 27-541, limits assumed)
# Experiment: method not described
row,binding result,Binder
1,no binding,B1
2,no binding,B2
3,no binding,B3

# Biological target: c-kit (UniProt P10721 26-520, limits assumed)
# Experiment: method not described
# Chain of c-kit (P10721 26-520 limits assumed): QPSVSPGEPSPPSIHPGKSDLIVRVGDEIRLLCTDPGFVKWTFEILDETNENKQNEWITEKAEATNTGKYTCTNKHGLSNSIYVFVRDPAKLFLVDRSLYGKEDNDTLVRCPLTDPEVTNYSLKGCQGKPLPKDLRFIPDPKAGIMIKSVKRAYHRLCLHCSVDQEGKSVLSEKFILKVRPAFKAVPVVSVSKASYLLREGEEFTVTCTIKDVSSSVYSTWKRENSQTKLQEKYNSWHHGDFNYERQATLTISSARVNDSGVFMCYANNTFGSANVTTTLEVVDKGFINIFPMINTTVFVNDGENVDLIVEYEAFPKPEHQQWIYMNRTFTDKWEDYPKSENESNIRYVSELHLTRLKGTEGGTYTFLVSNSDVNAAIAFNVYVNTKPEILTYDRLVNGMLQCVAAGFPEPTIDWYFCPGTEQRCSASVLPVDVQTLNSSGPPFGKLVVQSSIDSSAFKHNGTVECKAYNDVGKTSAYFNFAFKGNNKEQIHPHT
row,binding result,Binder
1,no binding,B1
2,no binding,B2
3,no binding,B3

# Biological target: CSF-1R (UniProt P07333 20-512, limits assumed)
# Experiment: method not described
# Chain of CSF-1R (P07333 20-512 limits assumed): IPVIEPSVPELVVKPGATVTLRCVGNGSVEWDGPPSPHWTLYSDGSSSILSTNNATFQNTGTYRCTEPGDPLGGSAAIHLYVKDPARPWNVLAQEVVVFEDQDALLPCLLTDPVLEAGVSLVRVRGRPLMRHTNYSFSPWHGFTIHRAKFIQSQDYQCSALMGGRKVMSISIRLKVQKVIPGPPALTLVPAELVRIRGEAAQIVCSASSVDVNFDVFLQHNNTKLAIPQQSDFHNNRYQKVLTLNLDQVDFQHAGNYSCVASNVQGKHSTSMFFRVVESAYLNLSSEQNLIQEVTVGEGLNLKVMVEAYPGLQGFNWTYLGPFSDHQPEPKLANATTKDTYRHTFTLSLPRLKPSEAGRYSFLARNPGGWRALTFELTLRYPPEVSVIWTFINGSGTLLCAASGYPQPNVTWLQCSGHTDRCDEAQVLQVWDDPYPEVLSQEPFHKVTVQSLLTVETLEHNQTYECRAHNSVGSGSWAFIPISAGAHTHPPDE
row,binding result,Binder
1,no binding,B1
2,no binding,B2
3,no binding,B3

# Biological target: PDGFR-alpha on MG-63 cells (human, UniProt P16234 24-1089)
# Experiment: cell-based or functional assay
# Chain of PDGFR-alpha on MG-63 cells (P16234 24-1089): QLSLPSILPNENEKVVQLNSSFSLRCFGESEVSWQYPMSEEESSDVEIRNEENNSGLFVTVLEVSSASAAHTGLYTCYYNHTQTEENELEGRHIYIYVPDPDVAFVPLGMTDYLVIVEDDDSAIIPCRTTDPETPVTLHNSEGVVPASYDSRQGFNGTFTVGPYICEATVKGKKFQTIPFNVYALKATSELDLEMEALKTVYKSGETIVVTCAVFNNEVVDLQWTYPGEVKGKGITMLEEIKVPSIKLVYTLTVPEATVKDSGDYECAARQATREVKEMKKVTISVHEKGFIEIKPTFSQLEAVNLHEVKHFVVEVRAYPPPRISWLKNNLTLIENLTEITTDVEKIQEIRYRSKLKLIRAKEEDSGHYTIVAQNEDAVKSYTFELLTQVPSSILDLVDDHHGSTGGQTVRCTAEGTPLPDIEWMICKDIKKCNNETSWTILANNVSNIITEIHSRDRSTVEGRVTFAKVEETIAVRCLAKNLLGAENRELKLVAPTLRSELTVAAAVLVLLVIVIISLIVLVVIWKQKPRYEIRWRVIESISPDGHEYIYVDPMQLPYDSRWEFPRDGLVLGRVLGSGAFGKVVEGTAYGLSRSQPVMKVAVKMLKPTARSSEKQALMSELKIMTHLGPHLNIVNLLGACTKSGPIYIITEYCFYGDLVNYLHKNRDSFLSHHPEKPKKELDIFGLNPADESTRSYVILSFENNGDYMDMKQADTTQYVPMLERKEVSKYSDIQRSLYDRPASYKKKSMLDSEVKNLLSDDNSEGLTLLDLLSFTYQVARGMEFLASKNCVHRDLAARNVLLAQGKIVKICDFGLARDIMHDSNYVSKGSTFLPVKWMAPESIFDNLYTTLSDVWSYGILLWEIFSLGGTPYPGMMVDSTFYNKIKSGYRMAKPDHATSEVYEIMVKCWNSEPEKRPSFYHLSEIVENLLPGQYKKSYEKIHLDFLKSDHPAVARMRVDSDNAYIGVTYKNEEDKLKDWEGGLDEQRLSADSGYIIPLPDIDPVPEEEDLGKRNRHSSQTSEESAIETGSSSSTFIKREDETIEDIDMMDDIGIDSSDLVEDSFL
row,Average pTyr Inhibition,Binder
1,> 100%,B4
2,> 100%,B5
3,95%,B6
4,> 100%,B7
5,> 100%,B8
6,92%,B9
7,91%,B10
8,> 100%,B11

# Biological target: PDGFR-alpha on human osteosarcoma MG-63 cells (human, UniProt P16234 24-1089)
# Experiment: cell-based or functional assay
# Chain of PDGFR-alpha on human osteosarcoma MG-63 cells (P16234 24-1089): as above
pTyr Assay: % Inhibition @ 2 µg/ml,Proliferation Assay: IC50 ng/ml (1-6-06),Binder
-9%,,B12
31%,2.2 ng/mL,B13
26%,150 ng/mL,B14
58%,1020 ng/mL,B15
-3%,3820 ng/mL,B16
56%,168 ng/mL,B17
-3%,,B18

# Source: patent US20090324601A1 (published 2009)
